From patent publication US12043671B2, “Antibodies targeting an amphiregulin-derived cell surface neo-epitope” (Gundersen Lutheran Medical Foundation, Inc., priority 2021, dated 2024) come the findings set out here.

Non-standard residues stand in square brackets, D forms with d. Residues, ends and D or L forms follow the SMILES beside them. *: point of attachment. Dolaproine = CO[C@@H]([C@@H]1CCCN1)[C@@H](C)C(=O)O; Dil = CC[C@H](C)[C@H](NC)[C@@H](CC(=O)O)OC; X1 = C[C@@H](N*)[C@@H](O)c1ccccc1; NMeV = CN[C@H](C(=O)O)C(C)C

For one data set, the system named is MCF-7 cells. The experiment in a line: Tubulin staining (microtubule integrity). It is filed as cell-based, human. Particulars: 48 h treatment. The procedure: FIGS. 4A-4E. In vitro 1A3-MMAE cytotoxicity in MCF-7 (FIG. 4A) and MCF-7F (FIG. 4B) cells measured by MTT assay after treatment with 1A3-MMAE, 1A3 or MMAE. FIG. 4C: Clonogenic growth of MCF-7 or MCF-7F cells after exposure to 1A3-MMAE and replating. FIG. 4D: The quantification of clonogenic growth assays in FIG. 4C. (FIG. 4E). Tubulin staining of MCF-7 cells after 48 h treatment with MMAE, 1A3, 1A3-MMAE (40× magnification).

For a further data set, the system named is MCF7 breast cancer cells. The experiment in a line: MTT cytotoxicity assay. Particulars: MCF7, 1.56-200 nM, 72 h.
Data set [1] concerns MCF7-F (fulvestrant-resistant MCF7) breast cancer cells. The experiment in a line: MTT cytotoxicity assay. The conditions noted are these: 1.56-200 nM, 72 h.
Protocol: (§1) The cells were seeded at a density of 5000 cells/well in 96-well plates. Approximately 24 h after cell seeding, the cells were treated with varying doses (1.56, 3.125, 6.25, 12.5, 25, 50, 100 and 200 nM) of MMAE, 1A3 and 1A3-VC-PAB-MMAE. Untreated cells were used as control. After incubating for 72 h, the medium was aspirated and 50 μL of serum-free media and 50 μL of MTT solution (5 mg/mL solution in PBS) was added into each well; the cells were then incubated for 3 h at 37° C. The formazan crystals formed were dissolved with 4 mM HCl, 0.1% NP40 in isopropanol. The absorbance was measured at 590 nm using VersaMax Microplate Reader (Molecular Devices LLC, San Jose, California, USA). The assays were performed in triplicate.
In data set [2] the target is T1, peptide representing the neo-epitope of the ADAM17-cleavage product of human AREG (Homo sapiens, UniProt P15514).
T1 construct: host or cells: synthetic peptide
The experiment in a line: ELISA of rabbit IgG candidates against peptides representing cleaved and full length AREG. It is filed as binding. Particulars: IgG format; cleaved vs uncleaved AREG peptide. From the text:
FIGS. 1A-1C. Isolation of antibodies that selectively recognize a peptide representing cleaved AREG. FIG. 1A: Schematic representation of the AREG cleavage and EGFR activation process, one consequence of which is the internalization of the small transmembrane fragment that remains cell-associated after TACE/ADAM17-mediated cleavage. FIG. 1B: Schematic representation of phage panning strategy using a peptide representing the cleaved AREG neo-epitope adhered to the well and a peptide representing the non-cleaved AREG region in the liquid phase.
Rabbit monoclonal IgG antibodies specific to cleaved-AREG were identified in contracted screening (Oak Biosciences Inc., Sunnyvale, CA, USA) using a recombinant Rabbit naïve phage display library (scFv format, VK-linker-VH) screening platform after four rounds of panning and ELISA validation. For panning, phage was selected against a peptide modeling the ADAM17-cleaved cell-associated epitope of AREG,^12 represented by the N-terminal region of THSMIDSSLSKI (SEQ ID NO: 2), and counter-selected against a peptide spanning this region (SMKTHSMIDSSLSKIAC; SEQ ID NO: 9), representing uncleaved AREG. […] GMF-1A3, referred to hereafter as simply “1A3”, was the antibody chosen for further characterization in this Example.

For a further data set, the system named is MCF7 cells. The experiment in a line: Internalization and intracellular localization of 1A3-pHrodo, live-cell imaging. It is filed as cell-based, human. The procedure: In order to study internalization, 1A3 was conjugated with pHrodo iFL Red dye using pHrodo iFL Red Microscale Protein Labeling Kit (P36014, Thermo Fisher Scientific). MCF7 cells were seeded in 12 mm Nunc Glass Bottom Dish, at a density of 1 ×10^5 cells/dish. After allowing the cells to attach overnight, the cells were incubated for 60 min with […] Hoechst dye for nuclei staining and LysoTracker® Green DND-26 (Thermo Fisher Scientific) for lysosomal labeling. The cells were then incubated with 1A3-pHrodo (2 μg/mL) for 20 min at 37° C. After washing the wells with PBS, the cells were supplemented with 1× live-cell imaging solution (Molecular probes, Thermo Fisher Scientific). Fluorescence images were acquired at 30 min intervals for 2.5 h with the Olympus 1×71 inverted fluorescence microscope (Olympus, Shinjuku, Tokyo, Japan). TAPI-2 (20 μM)—pre-treatment was performed overnight, with DMSO serving as a control.

Protocol for MCF7 breast cancer cells: as §1

`CC[C@H](C)[C@@H]([C@@H](CC(=O)N1CCC[C@H]1[C@H](OC)[C@@H](C)C(=O)N[C@H](C)[C@@H](O)c1ccccc1)OC)N(C)C(=O)[C@@H](NC(=O)[C@@H](NC)C(C)C)C(C)C` [MMAE, monomethyl auristatin E, reference compound] (H-[NMeV]V[Dil][Dolaproine]-X1): in the data set with MCF-7 cells, the “tubulin disruption (microtubule integrity)” value is “exhibited tubulin disruption”. Moreover, the “cytotoxicity by MTT assay” value (with MCF7 breast cancer cells; in data set [1]) was “potently killed the cells” throughout.

B1: GMF-3E4: Rabbit monoclonal IgG specific to cleaved AREG; VH SEQ ID NO: 7, VL SEQ ID NO: 8 (antibody, V domains shown)
VH: QSVKESEGRLVTPGTPLTLTCTVSGFSLSDYWMSWVRQAPGKGLEWIGIAGYSDNTYYASRAKGRFTISKTSTTVVLKITRPTTEDTATYFCVRDLYGVYSSGTTLWGPGTLVTVSS
VL: AELVMTQTPSPVSAAVGGTVTISCQSSQSVYNNNRLAWFQQKPGQPPKLLIYYASTLASGVSSRFKGSGSGTQFTLIISDVVCDDAATYYCQGYYSGGITGFGGGTEVVVK
modifications: 3E4 antibody, Heavy chain; 3E4 antibody, Light chain
Turning to B1, in data set [2], the “selectivity for cleaved AREG by ELISA” value is listed as “selectivity for cleaved AREG was confirmed”.

B2: GMF-3A3: Rabbit monoclonal IgG specific to cleaved AREG; VH SEQ ID NO: 5, VL SEQ ID NO: 6 (antibody, V domains shown)
VH: QQQLVESGGRLVTPGTPLTLTYTVSGFSLSDYHMSWVRQAPGKGLQWIATISNRGNTYYASWAKGRFTISKTSTTVDLKITSPTTEDTATYFCARDNVHGDGVLVFYLWGPGTLVTVSS
VL: AELVMTQTPASVSEPVGGTVTIKCQASQSIGTNLAWYQQKPGQPPKRLIYKASTLASGVSSRFKGSGSGTEFTLTISDLECADAATYYCQGYYSGDSNAFGGGTEVVVK
modifications: 3A3 antibody, Heavy chain; 3A3 antibody, Light chain
Take B2: the “selectivity for cleaved AREG by ELISA” value in data set [2] is “selectivity for cleaved AREG was confirmed”.

B3: 1A3-pHrodo (conjugate)
VH: QSVKESEGRLVTPGTPLRLTCTVAGYSLSRYHMCWVRQAPGKGLEWIGMIGGSGRTDYASWAKGRFTISKTSTTVDLKITSPTTEDTATYFCSTVYTDSDGDFWGPGTLVTVSS
VL: AELDMTQTPSSKSVPVGGTVTINCQASESVYSNDRLAWFQQKPGQPPKLLIYYASTLASGVPSRFKGSGSGTQFTLTISDLECADAATYYCQSCYDMSSYGVAFGGGTELEIL
As for B3, the “time of treatment after which red fluorescence (presence in acidic endosomes) was evident” value in the data set on MCF7 cells (1A3-pHrodo 2 μg/mL) is 30 min. In the data set with MCF7 cells (TAPI-2 20 μM overnight pre-treatment), the “fluorescence development after pretreatment with ADAM17 inhibitor TAPI-2” value is recorded as “prevented the development of fluorescence”.
